The target of the assay is free UbcH8 (Ube2L6), GST tag removed (human). Briefly: SAXS; free UbcH8 (GST removed) at 300 μM, 10 °C, six 10-min frames; dimer crystal structure 1WZV fitted to the dummy atom model.

Broadly, the stoichiometry N is a count of units in the complex or per binding partner. As for “free UbcH8 (Ube2L6), GST tag removed (enzyme)”, the stoichiometry N came out at 2.
